Test results as given in PMC2917276 (Acta Crystallographica Section D: Biological Crystallography, 2010).
Numbering of substitutions follows the chain as printed.

B1: C836 Fab (Fab, V domains shown)
VH: QVTLKESGPGILQPSQTLSLTCSFSGFSLSTYGMGVGWIRQPSGKGLEWLAHIWWDDVKRYNPALKSRLTISKDTSGSQVFLKIASVDTSDTATYYCARMGSDYDVWFDYWGQGTLVTVSA
VL: DVQITQSPSYLAASPGETITLNCRASKSISKYLAWYQEKPGKTNKLLIYSGSTLQSGIPSRFSGSGSGTDFTLTISSLEPEDFAMYFCQQHNEYPYTFGGGTKLEIK
notes: mouse VH of hybridoma mAb C836 joined to the human G1 constant region (Fab part); mouse VL of hybridoma mAb C836 joined to the human kappa constant region; Chimeric Fab; also called His-tagged C836 Fab
B2: H2L6 Fab (Fab, V domains shown)
VH: QVTLKESGPVLVKPTETLTLTCTVSGFSLSTYGMGVGWIRQPPGKALEWLAHIWWDDVKRYNPALKSRLTISKDTSKSQVVLTMTNMDPVDTATYYCARMGSDYDVWFDYWGQGTLVTVSS
VL: EIVLTQSPATLSLSPGERATLSCRASKSISKYLAWYQQKPGQAPRLLIYSGSTLQSGIPARFSGSGSGTDFTLTISSLEPEDFAVYYCQQHNEYPYTFGQGTKLEIK
notes: humanized version of C836 (CDRs grafted into human variable framework segments), human G1 constant domain; humanized version of C836 (CDRs grafted into human variable framework segments), human kappa constant domain
B3: M1295 Fab (Fab, V domains shown)
VH: B2 VH with M34V, M100L
VL: EIVLTQSPATLSLSPGERATLSCRASKSISKYLAWYQQKPGQAPRLLIYSGSTLQSGIPARFSGSGSGTDFTLTISSLEPEDFAVYYCQQHDYPYTFGQGTKLEIK
notes: human G1 constant domain; human kappa constant domain

Target: T1, Recombinant human IL-13 (human, UniProt P35225)
T1 construct: interleukin-13, human, recombinant; source: bought: R&D Systems (catalog No. 213-IL/CF), reconstituted in PBS pH 7.4
T1 sequence (P35225 35-143): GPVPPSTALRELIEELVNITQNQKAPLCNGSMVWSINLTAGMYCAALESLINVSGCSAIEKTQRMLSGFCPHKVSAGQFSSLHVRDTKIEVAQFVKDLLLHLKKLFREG
Assay: SEC; Fab mixed with IL-13 at a Fab:IL-13 molar ratio of 1:1.2, 20 min at 277 K; Superdex 200 10/300 in 20 mM HEPES pH 7.5, 0.1 M NaCl; elution compared with the free Fab
Details: both partners purified

| Binder | binding result |
| --- | --- |
| B1 | binds |
| B2 | binds |
| B3 | binds |
